Measurements reported in PMC13017536 (Nature, 2026).

Target: T1, His-tagged LetA (N-terminal 6×His2xQH-TEV-tagged LetA) (E. coli, UniProt P0AD03 1-427)
T1 sequence (looked up): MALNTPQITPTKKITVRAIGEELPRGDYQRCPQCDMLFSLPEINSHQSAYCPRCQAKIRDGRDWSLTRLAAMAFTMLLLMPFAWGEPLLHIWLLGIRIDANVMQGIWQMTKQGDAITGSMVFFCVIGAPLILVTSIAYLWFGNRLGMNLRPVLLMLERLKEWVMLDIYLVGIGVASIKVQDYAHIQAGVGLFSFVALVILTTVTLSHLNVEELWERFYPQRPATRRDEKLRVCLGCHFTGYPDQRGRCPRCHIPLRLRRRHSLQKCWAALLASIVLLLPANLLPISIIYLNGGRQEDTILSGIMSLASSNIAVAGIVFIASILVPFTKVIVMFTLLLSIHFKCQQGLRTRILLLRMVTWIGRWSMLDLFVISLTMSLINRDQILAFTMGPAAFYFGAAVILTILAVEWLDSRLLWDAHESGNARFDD
Test: cryo-EM structure

- stoichiometry N: 6 LetB per LetA
B1: LetB (lipophilic envelope-spanning tunnel B), untagged (natural protein, E. coli, UniProt P76272 1-877, looked up)
chain: MSQETPASTTEAQIKNKRRISPFWLLPFIALMIASWLIWDSYQDRGNTVTIDFMSADGIVPGRTPVRYQGVEVGTVQDISLSDDLRKIEVKVSIKSDMKDALREETQFWLVTPKASLAGVSGLDALVGGNYIGMMPGKGKEQDHFVALDTQPKYRLDNGDLMIHLQAPDLGSLNSGSLVYFRKIPVGKVYDYAINPNKQGVVIDVLIERRFTDLVKKGSRFWNVSGVDANVSISGAKVKLESLAALVNGAIAFDSPEESKPAEAEDTFGLYEDLAHSQRGVIIKLELPSGAGLTADSTPLMYQGLEVGQLTKLDLNPGGKVTGEMTVDPSVVTLLRENTRIELRNPKLSLSDANLSALLTGKTFELVPGDGEPRKEFVVVPGEKALLHEPDVLTLTLTAPESYGIDAGQPLILHGVQVGQVIDRKLTSKGVTFTVAIEPQHRELVKGDSKFVVNSRVDVKVGLDGVEFLGASASEWINGGIRILPGDKGEMKASYPLYANLEKALENSLSDLPTTTVSLSAETLPDVQAGSVVLYRKFEVGEVITVRPRANAFDIDLHIKPEYRNLLTSNSVFWAEGGAKVQLNGSGLTVQASPLSRALKGAISFDNLSGASASQRKGDKRILYASETAARAVGGQITLHAFDAGKLAVGMPIRYLGIDIGQIQTLDLITARNEVQAKAVLYPEYVQTFARGGTRFSVVTPQISAAGVEHLDTILQPYINVEPGRGNPRRDFELQEATITDSRYLDGLSIIVEAPEAGSLGIGTPVLFRGLEVGTVTGMTLGTLSDRVMIAMRISKRYQHLVRNNSVFWLASGYSLDFGLTGGVVKTGTFNQFIRGGIAFATPPGTPLAPKAQEGKHFLLQESEPKEWREWGTALPK
